From US20220153864A1 (Pieris, published 2022) come the findings set out here.

Assay [1] deals with T1, huCD137-His (recombinant human CD137 with C-terminal polyhistidine tag, R&D Systems) (human, UniProt Q07011 24-186).
T1 construct: also called biotinylated huCD137-His; not shown: C-terminal polyhistidine tag
Kind of assay: ELISA, huCD137-His coated, detection anti-NGAL-HRP. How it is done:
Recombinant huGPC3 (R&D Systems) at the concentration of 1 μg/mL in PBS was coated overnight on microtiter plates at 4° C. After five washes with 100 μL PBS-0.05% T (PBS supplemented with 0.05% (v/v) Tween 20), the plates were blocked with 2% BSA (w/v) in PBS-0.1% T (PBS-0.1% T-2% BSA) for 1 h at room temperature. After washing with 100 μL PBS-0.05% T (PBS supplemented with 0.05% (v/v) Tween 20) five times, exemplary fusion proteins (SEQ ID NOs: 87 and […] and CD137Ac1-Fusion 1 to 7) or the GPC3 antibody as include in the fusion proteins (SEQ ID NOs: 81 and 82) at different concentrations were added to the wells and incubated for 1 h at room temperature, followed by another wash step. Bound molecules under study were detected by incubation with 1:5000 diluted anti-human IgG Fc-HRP (Jackson Laboratory) in PBS-0.1% T-2% BSA. After an additional wash step, fluorogenic HRP substrate (QuantaBlu, Thermo) was added to each well and the fluorescence intensity was detected using a fluorescence microplate reader.
The same ELISA setup was also employed to determine the binding potency of fusion proteins to cynomolgus GPC3 and huCD137, where recombinant cyGPC3 (R&D Systems) or huCD137-His (recombinant human CD137 with C-terminal polyhistidine tag, R&D Systems) was instead coated on a microtiter plate. The testing agents were similarly titrated and bound agents were detected via anti-NGAL-HRP. […]
On the technique in general: ELISA stands for enzyme-linked immunosorbent assay.

Assay [2] deals with T2, human GPC3 expressed on cells (SK-Hep1::huGPC3; HepG2, Hep3B and MKN-45 tumor cells) (human, UniProt P51654 25-554).
T2 construct: whole, on cells; also called GPC3-positive tumor cells; human GPC3-expressing cells
Nature of the assay: flow cytometry on MKN-45 tumor cells (GPC3 moderate). Here is the method: (§1) 5×10⁴ cells per well were incubated for 1 h in ice-cold PBS containing 5% fetal calf serum (PBS-FCS). A dilution series of the testing molecule were added to the cells and incubated for 1 h on ice. Cells were washed twice with PBS and then incubated with a goat anti-hlgG Alexa647-labeled antibody or goat anti-hlgG Alexa488-labeled antibody for 30 min on ice. Cells were subsequently washed and analyzed using iQue Flow cytometer (Intellicyte Screener). Mean geometric fluorescent signals were plotted and fitted with Graphpad software. The geometric means of the fluorescence intensity were used to calculate EC₅₀ values using a four-parameter logistic regression with bottom fixed to background.
For flow cytometric analysis, tumor cell lines with different GPC3 expression levels (high to moderate expression: HepG2>Hep3B>MKN-45) and GPC3 negative cell line NCI-N87 were incubated with an exemplary fusion protein SEQ ID NOs: 87 and 82, the GPC3 antibody or the CD137 specific lipocalin mutein (Fc fusion) as included in the fusion protein (SEQ ID NOs: 81 and 82 and SEQ ID NO: 98, respectively), a reference CD137 antibody SEQ ID NOs: 26 and 27, or an isotype control (SEQ ID NO: 24 and 25), and detected using a fluorescently labeled anti-human IgG antibody as described in Example 6.

Assay [3] has as its target T2, human GPC3 expressed on cells …. Nature of the assay: flow cytometry, SK-Hep1 cells transfected with human GPC3, detection labelled anti-human IgG, GeoMean RL1-H [upper graph]. Here is the method:
For flow cytometric analysis, respective cell lines were incubated with an exemplary fusion protein (SEQ ID NOs: 87 and 82), the GPC3 antibody or the CD137 specific lipocalin mutein (Fc fusion) as included in the fusion protein (SEQ ID NOs: 81 and 82 and SEQ ID NO: 98, respectively), a reference CD137 antibody SEQ ID NOs: 26 and 27, or an isotype control (SEQ ID NOs: 24 and 25) and detected using a fluorescently labeled anti-human IgG antibody in FACS analysis as described in the following:
as §1
For orientation: A flow cytometer gives signals particle by particle.

T2 sequence (P51654 25-554 limits assumed): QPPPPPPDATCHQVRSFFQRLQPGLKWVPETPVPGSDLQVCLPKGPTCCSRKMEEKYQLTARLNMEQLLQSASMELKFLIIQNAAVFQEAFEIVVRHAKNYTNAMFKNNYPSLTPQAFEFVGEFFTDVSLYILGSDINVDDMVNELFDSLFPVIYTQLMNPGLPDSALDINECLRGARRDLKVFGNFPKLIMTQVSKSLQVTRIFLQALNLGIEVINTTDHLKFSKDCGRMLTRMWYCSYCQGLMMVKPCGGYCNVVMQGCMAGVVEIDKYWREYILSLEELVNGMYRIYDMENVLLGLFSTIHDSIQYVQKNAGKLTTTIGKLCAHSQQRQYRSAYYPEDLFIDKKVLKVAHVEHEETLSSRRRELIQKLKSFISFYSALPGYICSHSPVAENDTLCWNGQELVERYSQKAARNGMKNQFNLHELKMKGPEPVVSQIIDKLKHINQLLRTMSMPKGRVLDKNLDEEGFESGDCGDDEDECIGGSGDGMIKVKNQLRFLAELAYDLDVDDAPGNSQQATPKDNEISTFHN

B1: fusion protein SEQ ID NOs: 87 and 82 (bispecific antibody, human IgG4 S228P, kappa, F234A L235A)
heavy: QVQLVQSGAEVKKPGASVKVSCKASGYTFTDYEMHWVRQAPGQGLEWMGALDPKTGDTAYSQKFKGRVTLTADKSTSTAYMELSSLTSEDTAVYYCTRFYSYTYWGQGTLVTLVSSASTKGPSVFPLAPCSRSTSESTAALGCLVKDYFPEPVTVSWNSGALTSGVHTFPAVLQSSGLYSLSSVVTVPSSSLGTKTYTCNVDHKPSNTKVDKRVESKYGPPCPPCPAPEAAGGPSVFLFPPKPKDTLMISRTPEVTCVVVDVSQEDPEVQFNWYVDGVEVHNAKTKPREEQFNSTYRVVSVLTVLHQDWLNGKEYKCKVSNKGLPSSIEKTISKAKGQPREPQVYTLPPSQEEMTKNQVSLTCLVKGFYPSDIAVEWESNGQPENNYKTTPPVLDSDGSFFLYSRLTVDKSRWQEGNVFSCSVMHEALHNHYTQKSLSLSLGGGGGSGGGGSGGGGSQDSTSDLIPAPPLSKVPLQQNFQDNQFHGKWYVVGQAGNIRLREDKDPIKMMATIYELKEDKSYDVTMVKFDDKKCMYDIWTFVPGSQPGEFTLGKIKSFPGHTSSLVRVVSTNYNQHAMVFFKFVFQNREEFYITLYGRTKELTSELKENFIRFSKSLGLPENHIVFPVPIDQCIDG
light: DVVMTQSPLSLPVTPGEPASISCRSSQSLVHSNRNTYLHWYLQKPGQSPQLLIYKVSNRFSGVPDRFSGSGSGTDFTLKISRVEAEDVGVYYCSQNTHVPPTFGQGTKLEIKRTVAAPSVFIFPPSDEQLKSGTASVVCLLNNFYPREAKVQWKVDNALQSGNSQESVTEQDSKDSTYSLSSTLTLSKADYEKHKVYACEVTHQGLSSPVTKSFNRGEC
notes: also called exemplary fusion protein
In the case of B1, the EC50 in assay [1] was found to be 0.52 nM; in assay [2], 2.59 nM. Besides, in assay [3], the “EC50 (read off the curve)” value is approximately 5 nM.

One may read the EC50 as the midpoint of the concentration-response curve. One may read the EC50 (read off the curve) as the concentration that produces a half-maximal response. Read a high EC50 (read off the curve) as a less potent agent.
